From US20200199576
Residue numbers refer to the chain shown, from its start. Numbers in names are those of the source.

Experiments:
[1] = molecular target: T1, xUbcH7 (human), R5E, K9E
T1 chain: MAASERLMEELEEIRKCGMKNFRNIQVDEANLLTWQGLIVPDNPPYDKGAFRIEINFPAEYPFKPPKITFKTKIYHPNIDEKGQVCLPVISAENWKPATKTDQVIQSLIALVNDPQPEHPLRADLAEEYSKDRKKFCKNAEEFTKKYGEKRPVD

[2] = molecular target: wt UbcH7 (human E2)
[3] = molecular target: p53, P04637
[4] = molecular target: T2, kinase MAPK3, P27361
T2 chain: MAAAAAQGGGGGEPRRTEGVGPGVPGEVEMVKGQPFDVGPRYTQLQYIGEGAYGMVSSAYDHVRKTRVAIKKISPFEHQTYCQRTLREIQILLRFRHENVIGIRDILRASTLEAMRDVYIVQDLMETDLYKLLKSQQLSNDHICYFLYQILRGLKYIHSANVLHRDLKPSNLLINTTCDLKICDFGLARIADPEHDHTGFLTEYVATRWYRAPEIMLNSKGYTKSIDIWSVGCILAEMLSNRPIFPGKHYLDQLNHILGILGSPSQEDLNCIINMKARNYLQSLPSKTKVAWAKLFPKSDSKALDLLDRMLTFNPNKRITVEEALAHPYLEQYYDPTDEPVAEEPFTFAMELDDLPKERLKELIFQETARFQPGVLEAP

[5] = molecular target: protein arginine methyl transferase PRMT1, Q99873
[6] = molecular target: T3, β-catenin, P35222
T3 chain: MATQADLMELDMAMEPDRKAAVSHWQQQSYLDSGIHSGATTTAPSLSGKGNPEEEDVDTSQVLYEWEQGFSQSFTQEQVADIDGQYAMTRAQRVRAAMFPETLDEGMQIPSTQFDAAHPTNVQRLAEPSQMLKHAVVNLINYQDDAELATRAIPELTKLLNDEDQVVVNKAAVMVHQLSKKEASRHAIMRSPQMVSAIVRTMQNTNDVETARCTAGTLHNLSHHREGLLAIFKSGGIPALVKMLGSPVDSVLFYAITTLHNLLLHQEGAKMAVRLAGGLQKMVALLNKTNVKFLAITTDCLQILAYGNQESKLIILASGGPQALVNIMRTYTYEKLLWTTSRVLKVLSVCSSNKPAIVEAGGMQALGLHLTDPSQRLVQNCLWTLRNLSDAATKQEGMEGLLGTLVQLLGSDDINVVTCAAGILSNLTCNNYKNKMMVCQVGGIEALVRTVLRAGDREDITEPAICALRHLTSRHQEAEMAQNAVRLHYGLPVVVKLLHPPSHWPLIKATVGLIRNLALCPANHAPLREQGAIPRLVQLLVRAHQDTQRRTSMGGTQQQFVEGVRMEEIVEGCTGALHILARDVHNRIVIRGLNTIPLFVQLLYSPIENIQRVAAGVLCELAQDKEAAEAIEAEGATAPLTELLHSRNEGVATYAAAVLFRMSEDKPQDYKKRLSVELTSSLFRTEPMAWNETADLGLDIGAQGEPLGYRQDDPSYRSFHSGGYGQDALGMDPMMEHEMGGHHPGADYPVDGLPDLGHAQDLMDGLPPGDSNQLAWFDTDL

[7] = molecular target: T4, CDK4, P11802
T4 chain: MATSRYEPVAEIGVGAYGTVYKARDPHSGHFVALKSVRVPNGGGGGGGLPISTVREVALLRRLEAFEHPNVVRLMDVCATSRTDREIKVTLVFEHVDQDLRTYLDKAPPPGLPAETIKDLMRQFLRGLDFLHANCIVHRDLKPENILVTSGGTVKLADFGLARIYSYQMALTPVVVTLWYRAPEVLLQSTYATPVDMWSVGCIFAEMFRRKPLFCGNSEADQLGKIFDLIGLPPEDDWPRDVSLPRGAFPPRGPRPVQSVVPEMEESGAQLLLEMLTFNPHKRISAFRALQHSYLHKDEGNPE

[8] = molecular target: phosphatase PPP3CA, Q08209

p53, P04637, sequence (P04637 whole entry, looked up): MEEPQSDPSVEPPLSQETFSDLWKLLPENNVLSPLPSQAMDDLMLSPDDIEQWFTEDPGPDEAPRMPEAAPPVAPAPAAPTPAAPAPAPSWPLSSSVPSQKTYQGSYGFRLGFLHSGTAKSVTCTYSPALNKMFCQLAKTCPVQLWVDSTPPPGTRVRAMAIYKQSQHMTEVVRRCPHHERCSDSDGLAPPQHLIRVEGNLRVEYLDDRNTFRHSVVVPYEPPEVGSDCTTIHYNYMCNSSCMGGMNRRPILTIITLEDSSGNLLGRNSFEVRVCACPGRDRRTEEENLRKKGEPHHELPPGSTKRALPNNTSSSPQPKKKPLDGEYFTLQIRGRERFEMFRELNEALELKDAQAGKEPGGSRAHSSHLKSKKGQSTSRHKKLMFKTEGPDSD
protein arginine methyl transferase PRMT1, Q99873, sequence (Q99873 whole entry, looked up): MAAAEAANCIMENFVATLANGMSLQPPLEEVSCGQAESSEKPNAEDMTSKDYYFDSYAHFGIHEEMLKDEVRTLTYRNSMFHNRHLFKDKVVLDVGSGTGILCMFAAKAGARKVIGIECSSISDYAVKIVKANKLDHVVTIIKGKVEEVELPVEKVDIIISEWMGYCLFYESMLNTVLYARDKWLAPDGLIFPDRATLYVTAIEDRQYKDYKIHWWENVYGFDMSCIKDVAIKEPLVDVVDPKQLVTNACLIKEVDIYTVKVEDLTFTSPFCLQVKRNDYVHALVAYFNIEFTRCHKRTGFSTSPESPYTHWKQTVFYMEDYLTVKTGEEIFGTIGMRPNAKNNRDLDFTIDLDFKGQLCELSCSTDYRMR

B1: HECT domain of wt Smurf1 (protein)
chain: YERDLVQKLKVLRHELSLQQPQAGHCRIEVSREEIFEESYRQIMKMRPKDLKKRLMVKFRGEEGLDYGGVAREWLYLLCHEMLNPYYGLFQYSTDNIYMLQINPDSSINPDHLSYFHFVGRIMGLAVFHGHYINGGFTVPFYKQLLGKPIQLSDLESVDPELHKSLVWILENDITPVLDHTFCVEHNAFGRILQHELKPNGRNVPVTEENKKEYVRLYVNWRFMRGIEAQFLALQKGFNELIPQHLLKPFDQKELELIIGGLDKIDLNDWKSNTRLKHCVADSNIVRWFWQAVETFDEERRARLLQFVTGSTRVPLQGFKALQGSTGAAGPRLFTIHLIDANTDNLPKAHTCFNRIDIPPYESYEKLYEKLLTAVEETCGFAVE
[1]
  HECT auto-ubiquitination with xUB, reducing gel: the R5E and K9E mutants in the N-terminal helix of xUbcH7 interfered with the transfer of xUB to wt HECT E3s such as E6AP, Nedd4, Smurf1, and Smurf2
[2]
  HECT auto-ubiquitination with wt UB, reducing gel: HECT domains of wt E6AP, Nedd4, Smurf1 and Smurf2 can be loaded with wt UB through the wt Uba1-UbcH7 pair

B2: wt HECT domain of E6AP (protein)
chain: MKRAAAKHLIERYYHQLTEGCGNEACTNEFCASCPTFLRMDNNAAAIKALELYKINAKLCDPHPSKKGASSAYLENSKGAPNNSCSEIKMNKKGARIDFKDVTYLTEEKVYEILELCREREDYSPLIRVIGRVFSSAEALVQSFRKVKQHTKEELKSLQAKDEDKDEDEKEKAACSAAAMEEDSEASSSRIGDSSQGDNNLQKLGPDDVSVDIDAIRRVYTRLLSNEKIETAFLNALVYLSPNVECDLTYHNVYSRDPNYLNLFIIVMENRNLHSPEYLEMALPLFCKAMSKLPLAAQGKLIRLWSKYNADQIRRMMETFQQLITYKVISNEFNSRNLVNDDDAIVAASKCLKMVYYANVVGGEVDTNHNEEDDEEPIPESSELTLQELLGEERRNKKGPRVDPLETELGVKTLDCRKPLIPFEEFINEPLNEVLEMDKDYTFFKVETENKFSFMTCPFILNAVTKNLGLYYDNRIRMYSERRITVLYSLVQGQQLNPYLRLKVRRDHIIDDALVRLEMIAMENPADLKKQLYVEFEGEQGVDEGGVSKEFFQLVVEEIFNPDIGMFTYDESTKLFWFNPSSFETEGQFTLIGIVLGLAIYNNCILDVHFPMVVYRKLMGKKGTFRDLGDSHPVLYQSLKDLLEYEGNVEDDMMITFQISQTDLFGNPMMYDLKENGDKIPITNENRKEFVNLYSDYILNKSVEKQFKAFRRGFHMVTNESPLKYLFRPEEIELLICGSRNLDFQALEETTEYDGGYTRDSVLIREFWEIVHSFTDEQKRLFLQFTTGTDRAPVGGLGKLKMIIAKNGPDTERLPTSHTCFNVLLLPEYSSKEKLKERLLKAITYAKGFGML
[2]
  HECT auto-ubiquitination with wt UB, reducing gel: HECT domains of wt E6AP, Nedd4, Smurf1 and Smurf2 can be loaded with wt UB through the wt Uba1-UbcH7 pair

B3: xE6AP (fYW6), full-length E6AP with the YW6 HECT domain (protein)
chain: B2 chain with D651R, D652E, M653W, M654H
[3]
  p53 ubiquitination in the presence of E6, Western blot: fYW6 could efficiently ubiquitinate p53 with xUB through the xUba1-xUbcH7-fYW6 cascade and the ubiquitination was dependent on the E6 protein
[1]
  full-length E6AP auto-ubiquitination with xUB, Western blot: fYW4 and fYW6 can be auto-ubiquitinated by xUB through the xUba1-xUbcH7 cascade

B4: E6AP HECT mutant YW6 (D651R, D652E, M653W, M654H) (protein)
chain: B2 chain with D651R, D652E, M653W, M654H
[1]
  HECT auto-ubiquitination with xUB, Western blot: YW3, YW4 and YW6 could be efficiently auto-ubiquitinated with xUB through the xUba1-xUbcH7 pair

B5: HECT domain of wt Nedd4 (protein)
chain: SRDYKRKYEFFRRKLKKQNDIPNKFEMKLRRATVLEDSYRRIMGVKRADFLKARLWIEFDGEKGLDYGGVAREWFFLISKEMFNPYYGLFEYSATDNYTLQINPNSGLCNEDHLSYFKFIGRVAGMAVYHGKLLDGFFIRPFYKMMLHKPITLHDMESVDSEYYNSLRWILENDPTELDLRFIIDEELFGQTHQHELKNGGSEIVVTNKNKKEYIYLVIQWRFVNRIQKQMAAFKEGFFELIPQDLIKIFDENELELLMCGLGDVDVNDWREHTKYKNGYSANHQVIQWFWKAVLMMDSEKRIRLLQFVTGTSRVPMNGFAELYGSNGPQSFTVEQWGTPEKLPRAHTCFNRLDLPPYESFEELWDKLQMAIENTQGFDGVD
[1]
  HECT auto-ubiquitination with xUB, reducing gel: the R5E and K9E mutants in the N-terminal helix of xUbcH7 interfered with the transfer of xUB to wt HECT E3s such as E6AP, Nedd4, Smurf1, and Smurf2
[2]
  HECT auto-ubiquitination with wt UB, reducing gel: HECT domains of wt E6AP, Nedd4, Smurf1 and Smurf2 can be loaded with wt UB through the wt Uba1-UbcH7 pair

B6: wt CHIP (full-length) (protein)
chain: MKGKEEKEGGARLGAGGGSPEKSPSAQELKEQGNRLFVGRKYPEAAACYGRAIMQQHEQALADCRRALELDGQSVKAHFFLGQCQLEMESYDEAIANLQRAYSLAKEQRLNFGDDIPSALRIAKKKRWNSIEERRIHQESELHSYLSRLIAAERERELEECQRNHEGDEDDSHVRAQQACIEAKHDKYMADMDELFSQVDEKRKKRDIPDYLCGKISFELMREPCITPSGITYDRKDIEEHLQRVGHFDPVTRSPLTQEQLIPNLAMKEVIDAFISENGWVEDY
[3]
  p53 ubiquitination with wt UB, Western blot: p53 modification by wt UB going through the wt Uba1-UbcH5b-CHIP cascade
[4]
  in vitro substrate ubiquitination with wt UB through wt Uba1-UbcH5b-CHIP, Western blot: CHIP could poly-ubiquitinate MAPK3, β-catenin and CDK4
[5]
  in vitro substrate ubiquitination with wt UB through wt Uba1-UbcH5b-CHIP, Western blot: CHIP ubiquitination of PRMT1 and PPP3CA generated mono-ubiquitinated species
[6]
  in vitro substrate ubiquitination with wt UB through wt Uba1-UbcH5b-CHIP, Western blot: CHIP could poly-ubiquitinate MAPK3, β-catenin and CDK4
[7]
  in vitro substrate ubiquitination with wt UB through wt Uba1-UbcH5b-CHIP, Western blot: CHIP could poly-ubiquitinate MAPK3, β-catenin and CDK4
[8]
  in vitro substrate ubiquitination with wt UB through wt Uba1-UbcH5b-CHIP, Western blot: CHIP ubiquitination of PRMT1 and PPP3CA generated mono-ubiquitinated species

B7: xCHIP (CHIP-KB2), C213K, G214D, K215P, S217M, F218H, E219T (protein)
chain: B6 chain with C213K, G214D, K215P, S217M, F218H, E219T
[3]
  p53 ubiquitination with xUB, Western blot: both CHIP mutants could transfer xUB to p53, a known CHIP substrate (26), at an efficiency comparable to wt UB transfer by wt CHIP

B8: xCHIP (CHIP-KB12), C213K, G214D, K215P, S217M, F218R, E219T (protein)
chain: B6 chain with C213K, G214D, K215P, S217M, F218R, E219T
[3]
  p53 ubiquitination with xUB, Western blot: both CHIP mutants could transfer xUB to p53, a known CHIP substrate (26), at an efficiency comparable to wt UB transfer by wt CHIP
